Assay results as given in patent publication US20200281934A1, “SSTR-TARGETED CONJUGATES AND FORMULATIONS THEREOF” (TARVEDA THERAPEUTICS, INC., priority 2017, published 2020).
Read-outs that look alike come from different tables or passages of the source.

Tests used:
Assay type in all cases: in vivo, human
[1] = Phase 1 plasma pharmacokinetics of Conjugate 57 during dose escalation; conditions: for AUC(0-inf) / Cmax / clearance / Vd: mean, 1 hour IV infusion; for Vd: read-out: Vz
Description: (§1) The acetate salt of Conjugate 57 was administered to a patient as a 1 hour IV infusion once on an every 3 week schedule to escalating cohorts of 2-6 patients. Patients received Conjugate 57 treatment for 3 weeks, 6 weeks, 9 weeks, 12 weeks, 15 weeks, 18 weeks, 21 weeks, 24 weeks, 27 weeks, 30 weeks, 33 weeks, 36 weeks, 39 weeks, 42 weeks, 45 weeks, 48 weeks, 51 weeks, 54 weeks, 57 weeks, or 60 weeks. There were 7 Cohorts with the starting does of 1.0 mg and the highest dose of 25.0 mg. The doses of Conjugate 57 given to pateints were flat: 1.0 mg, 2.0 mg, 4.0 mg, 8.0 mg, 12.0 mg, 18.0 mg and 25.0 mg. Conjugate 57 concentrate for Solution for Injection is a sterile concentrated liquid containing Conjugate 57, mannitol, Polyoxyl 15 Hydroxystearate and acetate buffer. Each dosage unit contains 2.5 mg of Conjugate 57 (free-form) per mL, 50 mg/mL mannitol, 20 mg/mL Polyoxyl 15 Hydroxystearate and pH 4.0-4.8 acetate buffer in a stoppered 10 mL clear vial. Prior to administration, the product was diluted with 5% Mannitol Injection USP. The resulting diluted Conjugate 57 formulation can be infused intravenously.
Serial PK samples were collected prior, during and up to 10 hours after the start of infusion on Day 1 of Cycle 1 and Cycle 3.
Cmax is the maximum (or peak) serum concentration of a drug after the drug has been administrated and before the administration of a second dose. Area under curve to infinity (AUCinf) is a is a theoretical measure of the total exposure of drug to the body from administration till all the drug is eliminated. Clearance (CL) is the volume of plasma cleared of drug per unit time. It is an index of how well a drug is removed irreversibly from circulation. Volume of distribution (Vz) was also measured. Vz represents the degree to which a drug is distributed in body tissue rather than the plasma.

[2] = Phase 1 safety, tolerability and maximum tolerated dose; conditions: patients
Excerpt: The objectives of Phase 1 were to assess the safety and tolerability and determine the maximum tolerated dose and recommended Phase 2 dose of Conjugate 57 when administered intravenously on an every 3 week schedule in patients with somatostatin receptor 2 expressing advanced cancers (including gastroenteropancreatic or lung or thymus or other neuroendocrine tumors or small cell lung cancer or large cell neuroendocrine carcinoma of the lung). It also characterized both acute and chronic toxicities of Conjugate 57, characterized key pharmacokinetic parameters of Conjugate 57, DM1, and peptide ligand from Conjugate 57, assessed the potential of Conjugate 57 to induce anti-drug antibodies, and assessed preliminary anti-tumor activity by using standard tumor response criteria (RECIST 1.1) and pharmacodynamic (PDc) biomarker changes that include chromogranin A (CgA), neuron-specific enolase (NSE), and circulating tumor cells (CTCs) in the blood, and 5-hydroxyindoleacetic acid (5-HIAA) in the urine. In addition, the study explored the relationships between tumor SSTR2 expression as measured by multiple modalities (somatostatin analog radioimaging, immunohistochemistry, CTCs, or exosome analyses) and PK, efficacy, safety, anti-Conjugate 57 antibodies, and PDc biomarker changes in the blood. […]
(§2) Disease response was assessed by duration of response and RECIST 1.1. […]

[3] = test system: somatostatin receptor 2 expressing advanced cancers; assay: Phase 1 preliminary anti-tumor activity (RECIST 1.1, duration of response)
Excerpt: (§3) The objectives of Phase 1 were to assess the safety and tolerability and determine the maximum tolerated dose and recommended Phase 2 dose of Conjugate 57 when administered intravenously on an every 3 week schedule in patients with somatostatin receptor 2 expressing advanced cancers (including gastroenteropancreatic or lung or thymus or other neuroendocrine tumors or small cell lung cancer or large cell neuroendocrine carcinoma of the lung). It also characterized both acute and chronic toxicities of Conjugate 57, characterized key pharmacokinetic parameters of Conjugate 57, DM1, and peptide ligand from Conjugate 57, assessed the potential of Conjugate 57 to induce anti-drug antibodies, and assessed preliminary anti-tumor activity by using standard tumor response criteria (RECIST 1.1) and pharmacodynamic (PDc) biomarker changes that include chromogranin A (CgA), neuron-specific enolase (NSE), and circulating tumor cells (CTCs) in the blood, and 5-hydroxyindoleacetic acid (5-HIAA) in the urine. In addition, the study explored the relationships between tumor SSTR2 expression as measured by multiple modalities (somatostatin analog radioimaging, immunohistochemistry, CTCs, or exosome analyses) and PK, efficacy, safety, anti-Conjugate 57 antibodies, and PDc biomarker changes in the blood. Phase 1 study had two parts: Phase 1 Part A (dose escalation) and Phase 1 Part B (early expansion).
All patients were required to have SSTR2 expressing tumors. Tumor SSTR2 expression was determined by imaging within the preceding approximately 6 months, with Octreoscan or ^68Ga-DOTATATE, ^68Ga-DOTATOC, or ^68Ga-DOTANOC.
as §1, with “The resulting diluted Conjugate 57 formulation can be infused intravenously.” left out
as §2

GI (large bowel) NET = assay: Circulating biomarkers of neuroendocrine tumors and symptoms in a GI NET patient; conditions: 18 mg
Excerpt: as §3
A patient with well differentiated, intermediate grade GI (large bowel) NET with metastasis to lymph nodes, bone, lung, and brain was treated with Conjugate 57 at 18 mg. Their tumors progressed on all prior therapies: lanreotide, mTOR inhibitor, and/or 177Lu-DOTATATE. […] Circulating biomarkers of neuroendocrine tumors (NETs), including chromogranin A (CgA), neuron specific enolase (NSE) and circulating tumor cells (CTC), were collected and measured over time. Increased CgA is predictive of poor morphological response, progression free survival (PFS), and overall survival (OS) in pancreatic NETs. Decline in plasma concentration of NSE has been associated with response to treatment. Changes in CTCs has been associated with response to treatment in patients with NETs.

[4] = human, plasma, patients, dose 1 mg
[5] = human, plasma, patients, dose 2 mg
[6] = human, plasma, patients, dose 4 mg
[7] = human, plasma, patients, dose 8 mg
[8] = human, plasma, patients, dose 12 mg
[9] = human, plasma, patients, dose 18 mg
[10] = human, plasma, patients, dose 25 mg

## COc1cc2cc(c1Cl)N(C)C(=O)C[C@H](OC(=O)[C@H](C)N(C)C(=O)CCSSC[C@H](NC(=O)[C@@H]1CSSC[C@H](NC(=O)[C@H](N)Cc3ccccc3)C(=O)N[C@@H](Cc3ccc(O)cc3)C(=O)N[C@H](Cc3c[nH]c4ccccc34)C(=O)N[C@@H](CCCCN)C(=O)N[C@@H]([C@@H](C)O)C(=O)N1)C(N)=O)[C@]1(C)O[C@H]1[C@H](C)[C@@H]1C[C@@](O)(NC(=O)O1)[C@H](OC)/C=C/C=C(\C)C2 [Conjugate 57]
[1]; 12 mg and higher dose cohorts
  AUCinf relative to efficacious exposure threshold seen in pre-clinical xenograft studies of SCLC models: above efficacious exposure threshold
[1]; human, intravenous, plasma, patients, across all dose cohorts, read-out: Median t½ (half-life) (converted)
  half-life: 1.7 h
[1]; [4]
  AUC(0-inf): 0.0146 µM·h
  Cmax: 7.47 nM
  clearance: 633 mL/min
  Vd: 65 L
[1]; [5]
  AUC(0-inf): 0.0379 µM·h
  Cmax: 20.5 nM
  clearance: 583 mL/min
  Vd: 80 L
[1]; [6]
  AUC(0-inf): 0.118 µM·h
  Cmax: 74.3 nM
  clearance: 333 mL/min
  Vd: 60 L
[1]; [7]
  AUC(0-inf): 0.341 µM·h
  Cmax: 186 nM
  clearance: 250 mL/min
  Vd: 37 L
[1]; [8]
  AUC(0-inf): 0.584 µM·h
  Cmax: 293 nM
  clearance: 217 mL/min
  Vd: 33 L
[1]; [9]
  AUC(0-inf): 0.666 µM·h
  Cmax: 381 nM
  clearance: 267 mL/min
  Vd: 36 L
[1]; [10]
  AUC(0-inf): 1.31 µM·h
  Cmax: 741 nM
  clearance: 183 mL/min
  Vd: 50 L
[2]; 1.0-25.0 mg IV every 3 weeks
  tolerability: well tolerated
[2]; IV infusion every 3 weeks, flat dose
  maximum tolerated dose (MTD): 18 mg
[3]; NET patients
  ongoing patients with SD for 44 and 45 weeks: 2 patients
[3]; among 15 NET patients evaluable for response
  patients with stable disease (SD) at 9 weeks: 11 patients
[3]; dose range 8-18 mg
  patients with target lesion shrinkage: 3 patients
[3]; of the 11 NET patients with SD at 9 weeks
  patients with SD sustained for 18-45 weeks: 8 patients
GI (large bowel) NET
  disease related symptoms of flushing: disappeared after first dose
GI (large bowel) NET; FIG. 2A
  chromogranin A (CgA) level: decreased over time
GI (large bowel) NET; FIG. 2B
  neuron specific enolase (NSE) level: decreased over time
GI (large bowel) NET; FIG. 2C
  circulating tumor cells (CTC) level: decreased over time
